Measured values from US20240409617A1.

Target: S1
Experiment: BLI

## CR3022 IgG
  Kd: < 1 pM
